Among the data in article PMC8797792 are IC50 values, retold here.

The test addresses GST-Fbw7 (residues 263 to 707)-Skp1 complex (UniProt Q969H0). Briefly: AlphaScreen or HTRF. In general terms: Bead proximity is the source of the signal in Alpha formats.

A word on the IC50: it is the concentration that inhibits the measured activity by half. Low readings indicate inhibition by little substance, high ones a need for much substance.

Regarding “Myc T58 degron peptide, monophosphorylated (pT58)”, the half-maximal inhibitory concentration (IC50) came to 1.32 µM.
